Experiment: yeast display, Sf9 membrane polyspecificity reagent, FACS + sequencing; frameworks hold sequencing errors
Summary of the method: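 After 36–48 hours of galactose induction, yeast (Saccharomyces cerevisiae BJ5465) displaying a synthetic nanobody library were stained at 4 °C for 1 hour with 10% biotinylated, detergent-solubilized Sf9 membrane reagent. Streptavidin microbeads enriched the stained cells before FACS sorting into low and high (top ~1%) gates on anti-HA and streptavidin fluorescence. Each clone's polyreactivity label reflects its gate of origin.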

Sequence	polyreactivity (PSR sort gate)
QVQLVESGGGLVQAGGSLRLSCAASGSTINYYAMGWYRQAPGKERELVAAISSGTSTYYADSVKGRFTISRDNAKNTVYLQMNSLKPEDTAVYYCARRYYYQYRYDYWGQGTQVTVSS	high polyreactivity
QVQLVESGGGLVQAGGSLRLSCAASGSTIPDNTMGWYRQAPGKEREFVAAISRIGGTYYADSVKGRFTISRDNAKNYVYLQMNSLKPEDTAVYDCNAYPQGLSGRYHGFDYWGQGTQVTVST	low polyreactivity
QVQLVESGGGLVQAGGSLRLSCAASGSTIPNYAKGWYRQAPGKERELVARIRWNGDSTYYADSVKGRFTISRDNAKNTVYLQMNSLKPEDTAVYYCARQGYTLYRTRYRYDYWGQGTQVTASS	high polyreactivity
QVQLVESGGGLVQAGGSLRLSCAASGSTIPRHAMGWYRQAPGKERELVAAITSGGSTNYADSVKGRFTISRDNAKNTVYLQMNSLKPEDTAVYYCAADVIVRVYYYYYVLMDYWGQGTQVTVSS	low polyreactivity
QVQLVESGGGLVQAGGSLRLSCAASGSTIPSYAMGWYRQAPGKERELVASITYSDGTTRYADSVKGRFTISRDNAKNTVYLQMNSLKPEDTAVYYCAKYYYTSIVGYDSWGQGTQVTVSS	low polyreactivity
QVQLVESGGGLVQAGGSLRLSCAASGSTIPSYAMGWYRQAPGKERELVASITYSDGTTRYAYSVKGRFTISRDNAKNTVYLQMNSLKPEDTAVYYCNAVYYREGMDYWGQGTQVTVSS	low polyreactivity
QVQLVESGGGLVQAGGSLRLSCAASGSTIQQYAMGWYRQAPGKEREFVAAISWRGGRTYYADSVKGRFTISRDKAKNTVYLQMNSLKPEDTAVYYCAVDPSIYRLSAYYYDYWGQGTQVTVSS	low polyreactivity
QVQLVESGGGLVQAGGSLRLSCAASGSTIRYYAMGWYRQAPGKERELVAAISYGGGITNYADSVKGRFTISRDNAKNTVYLQMNSLKPEDTAVYCCAAYYRITRYDYWGQGTQVTVSS	high polyreactivity
QVQLVESGGGLVQAGGSLRLSCAASGSTISGNAMGWYRQAPGKERELVAAISQSGGSTYYADSVKGRFTISRDNAKNTVYLQMNSLKPEDTAVYYCNRLYYFLARRMDSWGQGTQVTVSS	high polyreactivity
QVQLVESGGGLVQAGGSLRLSCAASGSTISGYAMGWYRQAPGKERELVATISRGGSTNYADSVKGRFTISRDNAKNTVYLQMNSLKPEDTAVYYCAAQTYVWWVKYHSWGQGTQVTVSS	low polyreactivity
QVQLVESGGGLVQAGGSLRLSCAASGSTISSYAMGWYREAPGKERELVAAIDRSVSTNYADSVKGRFTISRDNAKNTVYLQMNSLKPEDTAVYYCNARHPTDDIVIYDYWGQGTQVTVSS	low polyreactivity
QVQLVESGGGLVQAGGSLRLSCAASGSTIVRYAMGWYRQAPGKERELVASISSGGTTNYADSVNGRFTISRDNAKNTVYLQMNSLKPEDTAVYFCNGTWAYRGHGYWGQGTQVTVSS	low polyreactivity
QVQLVESGGGLVQAGGSLRLSCAASGSTIWIYAMGWYRQAPGKERELVAAINWSGGNTYYADSVKGRFTISRDNAKNTVYLQMNSLKPEDTAVYYCAAAFYIYGVEGDYWGQGTQVTVSS	low polyreactivity
QVQLVESGGGLVQAGGSLRLSCAASGSTIYFNAMGWYRQAPGKERELVAAIDWSGGSTYYADSVKGRFTISRDNAKNTFYLHMNSLKPEDTAVYYCAAAYHYYGNTVGYADYDYWGQGNQVTVSS	low polyreactivity
QVQLVESGGGLVQAGGSLRLSCAASGSTIYFNGMGWYRQAPGKERELVAAITSGGSTDYADSVKGRFTISRDNAKNTVDLQMNSLKPEDTAVYYCAADGEDSLWTGYDYDYWGQGTQVTVSS	low polyreactivity
QVQLVESGGGLVQAGGSLRLSCAASGSTIYFYAMGWYRQAPGKERELVAAISGSGGRTYYADSVKGRFTISRDNAKNTVYLQMNSLKPEDTAVYYCAAEWYPYSDREFLYYYWGQGTQVTVSS	high polyreactivity
QVQLVESGGGLVQAGGSLRLSCAASGSTIYGYAMGWYRQAPGKERELVAAISWSGGRTYYADSVKGRFTISRDNAKNTVYLQMNSLNPVDTAVYYCNTLRRLTGRYGWSSKYYYWGQGTQVTVSS	high polyreactivity

Source: the nanobody polyreactivity screen of Harvey et al. (2022)
